The values that follow come from PMC8560819, “Dynamic interactions and Ca^2+-binding modulate the holdase-type chaperone activity of S100B preventing tau aggregation and seeding” (Nature Communications, 2021).

First the molecules themselves.
B1: R3 peptide (peptide)
peptide: Ac-PGGGSVQIVYKP-NH2
notes: 12-residue tau peptide within K18 that holds PHF6 (306-VQIVYK-311); source: synthetic peptide, bought: Genecust (France)
B2: R0 peptide (peptide)
peptide: Ac-REPKKVAVVRTP-NH2
notes: 12-residue tau peptide from the proline-rich region, holds Thr231; also called RO; source: synthetic peptide, bought: Genecust (France)
B3: S100B (natural protein)
chain: MSELEKAMVALIDVFHQYSGREGDKHKLKKSELKELINNELSHFLEEIKEQEVVDKVMETLDNDGDGECDFQEFMAFVAMVTTACHEFFEHE
notes: the crystal structure PDB 2H61 and the assignment BMRB 27199 were used for it; Used unlabelled or uniformly 15N-labelled (M9 medium with 15N-ammonium chloride); also called S100B-Ca^2+; apo S100B
B4: R2 peptide (peptide)
peptide: Ac-PGGGKVQIINKK-NH2
notes: 12-residue tau peptide within K18 that holds PHF6* (275-VQIINK-280); source: synthetic peptide, bought: Genecust (France)

For data set [1], the target named is B3. Briefly: NMR titration; 100 µM 15N-S100B titrated with 50 to 750 µM tau peptide; 50 mM Hepes pH 6.8, 1.25 mM CaCl2, 298 K; Kd from chemical shift perturbation of 11 resonances. Conditions: both partners purified.
Data set [2] concerns the molecule itself. Kind of data set: SEC-SAXS; Superdex 200 (3.2/300), 50 mM Tris-HCl, 100 mM NaCl, 2% glycerol, 2 mM CaCl2, pH 7.9; S100B alone, S100B mixed with equimolar K18, or K18 alone, 12–13 mg/ml.

Consider B1, for which, in data set [1], the Kd was 266 µM.

Regarding B2, the Kd in data set [1] was determined as 519 µM.

Consider B3, for which the “stoichiometry N” value in data set [2] was found to be 2.

For B4, in data set [1], the Kd worked out at 163 µM.
